“And” between values parts separate entries of the source, which are not always exact repeats. Equal entries are not always repeated.
Legend:
Test in all cases: cell-based or functional assay
[1] = target: FGFR3α-IIIc expressed on transfected BAF3 cells
[2] = target: FGFR1α-IIIb expressed on transfected BAF3 cells
[3] = target: FGFR2α-IIIb expressed on transfected BAF3 cells
[4] = target: FGFR3α-IIIc expressed on transfected BAF3 cells; remark: listed apart in the source
[5] = target: FGFR3α-IIIb expressed on transfected BAF3 cells
[6] = target: FGFR1α-IIIc expressed on transfected BAF3 cells
[7] = target: FGFR2α-IIIc expressed on transfected BAF3 cells

EC50 of the cell proliferative response [1]: ~1 ng/mL and ~2 ng/mL
Alamar Blue Units (proliferation of BAF3 cells expressing the receptor) at 1.6 ng/ml zFGF5 [2]: 0 Alamar Blue Units
Alamar Blue Units (proliferation of BAF3 cells expressing the receptor) at 3.1 ng/ml zFGF5 [2]: 1.7 Alamar Blue Units
Alamar Blue Units (proliferation of BAF3 cells expressing the receptor) at 6.2 ng/ml zFGF5 [2]: 1.3 Alamar Blue Units
Alamar Blue Units (proliferation of BAF3 cells expressing the receptor) at 12.5 ng/ml zFGF5 [2]: 0 Alamar Blue Units
Alamar Blue Units (proliferation of BAF3 cells expressing the receptor) at 25 ng/ml zFGF5 [2]: 10.9 Alamar Blue Units
Alamar Blue Units (proliferation of BAF3 cells expressing the receptor) at 50 ng/ml zFGF5 [2]: 0 Alamar Blue Units
Alamar Blue Units (proliferation of BAF3 cells expressing the receptor) at 100 ng/ml zFGF5 [2]: 0 Alamar Blue Units
Alamar Blue Units (proliferation of BAF3 cells expressing the receptor) at 200 ng/ml zFGF5 [2]: 0 Alamar Blue Units
Alamar Blue Units (proliferation of BAF3 cells expressing the receptor) at 1.6 ng/ml zFGF5 [3]: 0.2 Alamar Blue Units
Alamar Blue Units (proliferation of BAF3 cells expressing the receptor) at 3.1 ng/ml zFGF5 [3]: 0.06 Alamar Blue Units
Alamar Blue Units (proliferation of BAF3 cells expressing the receptor) at 6.2 ng/ml zFGF5 [3]: 0 Alamar Blue Units
Alamar Blue Units (proliferation of BAF3 cells expressing the receptor) at 12.5 ng/ml zFGF5 [3]: 0.4 Alamar Blue Units
Alamar Blue Units (proliferation of BAF3 cells expressing the receptor) at 25 ng/ml zFGF5 [3]: 0.2 Alamar Blue Units
Alamar Blue Units (proliferation of BAF3 cells expressing the receptor) at 50 ng/ml zFGF5 [3]: 0.5 Alamar Blue Units
Alamar Blue Units (proliferation of BAF3 cells expressing the receptor) at 100 ng/ml zFGF5 [3]: 1.3 Alamar Blue Units
Alamar Blue Units (proliferation of BAF3 cells expressing the receptor) at 200 ng/ml zFGF5 [3]: 1.3 Alamar Blue Units
Alamar Blue Units (proliferation of BAF3 cells expressing the receptor) at 1.6 ng/ml zFGF5 [4]: 1400 Alamar Blue Units
Alamar Blue Units (proliferation of BAF3 cells expressing the receptor) at 3.1 ng/ml zFGF5 [4]: 2000 Alamar Blue Units
Alamar Blue Units (proliferation of BAF3 cells expressing the receptor) at 6.2 ng/ml zFGF5 [4]: 2580 Alamar Blue Units
Alamar Blue Units (proliferation of BAF3 cells expressing the receptor) at 12.5 ng/ml zFGF5 [4]: 3200 Alamar Blue Units
Alamar Blue Units (proliferation of BAF3 cells expressing the receptor) at 25 ng/ml zFGF5 [4]: 3760 Alamar Blue Units
Alamar Blue Units (proliferation of BAF3 cells expressing the receptor) at 50 ng/ml zFGF5 [4]: 3960 Alamar Blue Units
Alamar Blue Units (proliferation of BAF3 cells expressing the receptor) at 100 ng/ml zFGF5 [4]: 4120 Alamar Blue Units
Alamar Blue Units (proliferation of BAF3 cells expressing the receptor) at 200 ng/ml zFGF5 [4]: 4200 Alamar Blue Units
Alamar Blue Units (proliferation of BAF3 cells expressing the receptor) at 1.6 ng/ml zFGF5 [5]: 0 Alamar Blue Units
Alamar Blue Units (proliferation of BAF3 cells expressing the receptor) at 3.1 ng/ml zFGF5 [5]: 0 Alamar Blue Units
Alamar Blue Units (proliferation of BAF3 cells expressing the receptor) at 6.2 ng/ml zFGF5 [5]: 0 Alamar Blue Units
Alamar Blue Units (proliferation of BAF3 cells expressing the receptor) at 12.5 ng/ml zFGF5 [5]: 0 Alamar Blue Units
Alamar Blue Units (proliferation of BAF3 cells expressing the receptor) at 25 ng/ml zFGF5 [5]: 1.4 Alamar Blue Units
Alamar Blue Units (proliferation of BAF3 cells expressing the receptor) at 50 ng/ml zFGF5 [5]: 19 Alamar Blue Units
Alamar Blue Units (proliferation of BAF3 cells expressing the receptor) at 100 ng/ml zFGF5 [5]: 189 Alamar Blue Units
Alamar Blue Units (proliferation of BAF3 cells expressing the receptor) at 200 ng/ml zFGF5 [5]: 472 Alamar Blue Units
Alamar Blue Units (proliferation of BAF3 cells expressing the receptor) at 1.6 ng/ml zFGF5 [6]: 2.6 Alamar Blue Units
Alamar Blue Units (proliferation of BAF3 cells expressing the receptor) at 3.1 ng/ml zFGF5 [6]: 4.2 Alamar Blue Units
Alamar Blue Units (proliferation of BAF3 cells expressing the receptor) at 6.2 ng/ml zFGF5 [6]: 14.2 Alamar Blue Units
Alamar Blue Units (proliferation of BAF3 cells expressing the receptor) at 12.5 ng/ml zFGF5 [6]: 29.9 Alamar Blue Units
Alamar Blue Units (proliferation of BAF3 cells expressing the receptor) at 25 ng/ml zFGF5 [6]: 86 Alamar Blue Units
Alamar Blue Units (proliferation of BAF3 cells expressing the receptor) at 50 ng/ml zFGF5 [6]: 224 Alamar Blue Units
Alamar Blue Units (proliferation of BAF3 cells expressing the receptor) at 100 ng/ml zFGF5 [6]: 488 Alamar Blue Units
Alamar Blue Units (proliferation of BAF3 cells expressing the receptor) at 200 ng/ml zFGF5 [6]: 912 Alamar Blue Units
Alamar Blue Units (proliferation of BAF3 cells expressing the receptor) at 1.6 ng/ml zFGF5 [7]: 241 Alamar Blue Units
Alamar Blue Units (proliferation of BAF3 cells expressing the receptor) at 3.1 ng/ml zFGF5 [7]: 480 Alamar Blue Units
Alamar Blue Units (proliferation of BAF3 cells expressing the receptor) at 6.2 ng/ml zFGF5 [7]: 715 Alamar Blue Units
Alamar Blue Units (proliferation of BAF3 cells expressing the receptor) at 12.5 ng/ml zFGF5 [7]: 977 Alamar Blue Units
Alamar Blue Units (proliferation of BAF3 cells expressing the receptor) at 25 ng/ml zFGF5 [7]: 1310 Alamar Blue Units
Alamar Blue Units (proliferation of BAF3 cells expressing the receptor) at 50 ng/ml zFGF5 [7]: 1520 Alamar Blue Units
Alamar Blue Units (proliferation of BAF3 cells expressing the receptor) at 100 ng/ml zFGF5 [7]: 1720 Alamar Blue Units
Alamar Blue Units (proliferation of BAF3 cells expressing the receptor) at 200 ng/ml zFGF5 [7]: 1790 Alamar Blue Units
B1: human zFGF5 (FGF homolog polypeptide) (ligand)
chain: EENVDFRIHVENQTRARDDVSRKQLRLYQLYSRTSGKHIQVLGRRISARGEDGDKYAQLLVETDTFGSQVRIKGKETEFYLCMNRKGKLVGKPDGTSKECVFIEKVLENNYTALMSAKYSGWYVGFTKKGRPRKGPKTRENQQDVHFMKRYPKGQPELQKPFKYTTVTKRSRRIRPTHPA
